Drawing on paper PMC7532178, “Interaction of protocadherin-15 with the scaffold protein whirlin supports its anchoring of hair-bundle lateral links in cochlear hair cells” (Scientific Reports, 2020), this text covers Kd for 5 molecules.

No end group written: not given here. *: point of attachment. Biotin = O=C1N[C@H]2[C@H](CS[C@H]2CCCCC(=O)*)N1; TTDS = trioxatridecan-succinamic acid spacer

Test [1] addresses PCDH15-CD2 C-terminal peptide (biotin-TTDS-…) (mouse). The test is described as follows: SPR; harmonin fragments or full-length harmonin-a1 with C-terminal peptides; Fig. S10 and data not shown.
In test [2] the target is PCDH15-CD1 C-terminal peptide (biotin-TTDS-…) (mouse). The test is described as above.
The target in test [3] is PCDH15-CD3 C-terminal peptide (biotin-TTDS-…) (mouse). The test is described as above.
Test [4] concerns the target T1, PCDH15-CD1 C-terminal peptide (biotin-TTDS-GIDVQPHSQSTSL) (mouse).
T1 construct: C-terminal 13 aa of protocadherin-15 isoform CD1, including the PBM; source: synthetic peptide (Eurogentec); not shown: biotin, N-terminal, kept
T1 peptide: {Biotin-TTDS}-GIDVQPHSQSTSL
Described as above. Particulars: both partners purified.

The target of test [5] is T2, PCDH15-CD2 C-terminal peptide (biotin-TTDS-GANSEQYNTAL) (mouse).
T2 construct: C-terminal 11 aa of protocadherin-15 isoform CD2, including the PBM; source: synthetic peptide (Eurogentec); not shown: biotin, N-terminal, kept
T2 peptide: {Biotin-TTDS}-GANSEQYNTAL
The description is as above. Particulars: both partners purified.

Test [6] has as its target T3, PCDH15-CD3 C-terminal peptide (biotin-TTDS-MGPWNSLHIPMTKL) (mouse).
T3 construct: C-terminal 14 aa of protocadherin-15 isoform CD3, including the PBM; source: synthetic peptide (Eurogentec); not shown: biotin, N-terminal, kept
T3 peptide: {Biotin-TTDS}-MGPWNSLHIPMTKL
Described as above. The settings on record: both partners purified.

In another test the target is T4, CDH23 C-terminal peptide (Mus musculus, UniProt Q99PF4).
T4 chain: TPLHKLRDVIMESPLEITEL

The target in test [7] is T5, whirlin-NTR-PDZ1-Hp1 (aa residues 2-265) (mouse, UniProt Q80VW5-1 2-265).
T5 construct: extra 7 aa at the N-terminus of all recombinant proteins of the study; whirlin (long isoform, L-whirlin), residues 2-265: NTR (with HHD1), PDZ1 and hairpin Hp1; The methods call the 2-265 construct whirlin-NTR-PDZ1; also called NTR-PDZ1-Hp1 whirlin fragment; Nter-PDZ1-Hp1; source: E. coli BL21 (DE3) codonPlus-RIPL, purified (Glutathione Sepharose 4B, GST removed by TEV proteinase, SEC)
T5 sequence: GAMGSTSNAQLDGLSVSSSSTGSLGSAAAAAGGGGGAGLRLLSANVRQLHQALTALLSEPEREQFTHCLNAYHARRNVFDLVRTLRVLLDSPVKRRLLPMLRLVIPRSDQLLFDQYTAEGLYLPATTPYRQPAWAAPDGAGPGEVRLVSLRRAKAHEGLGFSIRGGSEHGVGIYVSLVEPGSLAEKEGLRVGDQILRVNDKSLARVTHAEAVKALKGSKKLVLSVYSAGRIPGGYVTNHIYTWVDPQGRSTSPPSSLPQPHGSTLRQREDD
Put plainly: SPR; ProteOn XPR 36; N-terminally biotinylated peptides captured on a Neutravidin NLC sensor chip, whirlin fragments flowed as analytes at 20 μL/min for 2 min; 250 mM NaCl, 50 mM Tris pH 7.5, 0.5 mM TCEP; steady-state fit Req = (Rmax*C)/(Kd+C); mean of three experiments; Figure 4B shows the responses at 10 μM. The settings on record: both partners purified. A general note: In SPR one partner is held on a chip, and binding of the other changes the refractive index at the surface.

Test [8] concerns the target T6, whirlin PDZ1-Hp (aa residues 137-246) (mouse, UniProt Q80VW5-1 137-246).
T6 construct: extra 7 aa at the N-terminus of all recombinant proteins of the study; whirlin, residues 137-246: PDZ1 with its hairpin extension Hp1; also called PDZ1 + Hp1; whirlin PDZ1-Hp1 fragment
T6 sequence: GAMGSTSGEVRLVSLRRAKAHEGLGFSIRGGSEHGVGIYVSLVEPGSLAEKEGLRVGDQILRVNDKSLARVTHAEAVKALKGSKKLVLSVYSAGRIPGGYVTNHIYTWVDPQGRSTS
The test is described as above. Particulars: both partners purified.

For test [9], the target named is T7, whirlin-PDZ3 (aa residues 821-915) (mouse, UniProt Q80VW5-1 821-915).
T7 construct: extra 7 aa at the N-terminus of all recombinant proteins of the study; whirlin, residues 821-915: PDZ3 domain, common to L- and S-whirlin; also called whirlin PDZ3 domain
T7 sequence: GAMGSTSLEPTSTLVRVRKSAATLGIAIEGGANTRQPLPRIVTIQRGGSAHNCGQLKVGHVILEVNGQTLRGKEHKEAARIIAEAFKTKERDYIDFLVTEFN
The description is as above. Particulars: both partners purified.

Test [10] has as its target T8, whirlin-PDZ1 (aa residues 137-228) (mouse, UniProt Q80VW5-1 137-228).
T8 construct: extra 7 aa at the N-terminus of all recombinant proteins of the study; whirlin, residues 137-228: PDZ1 domain; also called whirlin PDZ1 domain alone; source: E. coli BL21 (DE3) codonPlus-RIPL, purified (Glutathione Sepharose 4B, GST removed by TEV proteinase, SEC)
T8 sequence: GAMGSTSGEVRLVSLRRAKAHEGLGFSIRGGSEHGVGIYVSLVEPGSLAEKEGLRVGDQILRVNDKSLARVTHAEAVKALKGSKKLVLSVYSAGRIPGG
The description is as above. The settings on record: both partners purified.

Test [11] addresses T9, whirlin-HHD1 (aa residues 30-121) (mouse, UniProt Q80VW5-1 30-121).
T9 construct: extra 7 aa at the N-terminus of all recombinant proteins of the study; whirlin, residues 30-121: harmonin-homology domain 1 (HHD1); also called HHD1 domain alone; source: E. coli BL21 (DE3) codonPlus-RIPL, purified (Glutathione Sepharose 4B, GST removed by TEV proteinase, SEC)
T9 sequence: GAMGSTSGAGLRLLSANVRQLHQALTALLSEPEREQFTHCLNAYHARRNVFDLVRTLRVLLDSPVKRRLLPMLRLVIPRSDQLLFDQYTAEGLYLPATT
The description is as above. The settings on record: both partners purified.

For test [12], the target named is T10, whirlin-NTR (aa residues 2-147) (mouse, UniProt Q80VW5-1 2-147).
T10 construct: extra 7 aa at the N-terminus of all recombinant proteins of the study; also called entire NTR of whirlin (containing the HHD1 domain); source: E. coli BL21 (DE3) codonPlus-RIPL, purified (Glutathione Sepharose 4B, GST removed by TEV proteinase, SEC)
T10 sequence: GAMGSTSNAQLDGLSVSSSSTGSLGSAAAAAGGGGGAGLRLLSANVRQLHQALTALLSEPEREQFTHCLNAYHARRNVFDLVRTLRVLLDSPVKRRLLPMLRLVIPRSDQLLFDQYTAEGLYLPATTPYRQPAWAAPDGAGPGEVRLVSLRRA
The description is as above. The settings on record: both partners purified.

In test [13] the target is T11, whirlin-PDZ2 (aa residues 272-368) (mouse, UniProt Q80VW5-1 272-368).
T11 construct: extra 7 aa at the N-terminus of all recombinant proteins of the study; whirlin, residues 272-368: PDZ2 domain; source: E. coli BL21 (DE3) codonPlus-RIPL, purified (Glutathione Sepharose 4B, GST removed by TEV proteinase, SEC)
T11 sequence: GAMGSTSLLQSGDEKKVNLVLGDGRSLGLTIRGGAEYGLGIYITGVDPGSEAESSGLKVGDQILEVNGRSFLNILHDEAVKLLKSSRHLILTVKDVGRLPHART
Described as above. The settings on record: both partners purified.

Test [14] addresses T5, whirlin-NTR-PDZ1-Hp1 (aa residues 2-265). Described as above. Particulars: both partners purified. This is another data set of the same source.

One may read the Kd as the free concentration of one partner at which half of the binding sites on the other are occupied at equilibrium, for simple one-to-one binding. A low value points to tighter binding.

Take “PDZ domains of harmonin in tandem association”: the Kd in test [1], in [2] and in [3] was more than 200 µM in each case.

B1: full-length harmonin-a1 (natural protein)
chain: MDRKVAREFRHKVDFLIENDAEKDYLYDVLRMYHQTMDVAVLVGDLKLVINEPNRLPLFDAIRPLIPLKHQVEYDQLTPRRSRKLKEVRLDRLHPEGLGLSVRGGLEFGCGLFISHLIKGGQADSVGLQVGDEIVRINGYSISSCTHEEVINLIRTKKTVSIKVRHIGLIPVKSSPEESLKWQYVDQFVSESGGVRGGLGSPGNRTTKEKKVFISLVGSRGLGCSISSGPIQKPGIFVSHVKPGSLSAEVGLETGDQIVEVNGIDFTNLDHKEAVNVLKSSRSLTISIVAGAGRELFMTDRERLEEARQRELQRQELLMQKRLAMESNKILQEQQEMERQRRKEIAQKAAEENERYRKEMEQISEEEEKFKKQWEEDWGSKEQLILPKTITAEVHPVPLRKPKSFGWFYRYDGKFPTIRKKAKEKKKAKYDSLQDLRKNKKELEFEQKLYKEKEEMLEKEKQLKINRLAQEVSETEREDLEESEKTQYWVERLCQTRLEQISSAENEIPEMTTGPPPPPPSVSPLAPPLRRFAGGIHLHTTDLDDIPLDMFYYPPKTPSALPVMPHPPSVNSPSKVPAPPVLPSSGHVSSSSSPWVQRTPPPIPIPPPPSIPTQDLTPTRPLPSALEEALGNHPFRTGDPGHPADDWEANTHSGKPSSSPTTERSFPPAPKTFCPSPQPPRGPGVSTISKPVMVHQEHNFVYRPAVKSEVLPQEMLKRMVVYQTAFRQDFRKYEEGFDPYSMFSPEQIAGKDVRLLRIKKEGSLDLALEGGVDSPVGKVVVSAVYEGGAAERHGGVVKGDEIMAINGKIVTDYTLAEAEAALQKAWNQGGDWIDLVVAVCPPKEYDDELSSLPSSAAESPQLARKQLEAYEPVCRHGFFLQLEPTNLLLKSRERNQTDPSWRPASSAPSP
In the case of B1, the Kd in [4], in test [5] and in test [6] was more than 200 µM throughout.

B2: harmonin-PDZ3 (aa residues 738-849) (domain or fragment)
chain: DPYSMFSPEQIAGKDVRLLRIKKEGSLDLALEGGVDSPVGKVVVSAVYEGGAAERHGGVVKGDEIMAINGKIVTDYTLAEAEAALQKAWNQGGDWIDLVVAVCPPKEYDDEL
For the molecule B2, the Kd in [4], in test [5] and in test [6] was more than 200 µM each time.

B3: whirlin PDZ3 (protein)
chain: TSTLVRVRKSAATLGIAIEGGANTRQPLPRIVTIQRGGSAHNCGQLKVGHVILEVNGQTLRGKEHKEAARIIAEAFKTKERDYIDFLVTE
On to B3, for which the Kd in the test with CDH23 C-terminal peptide is approximately 4 µM.

B4: CDH23 C-terminal peptide (biotin-TTDS-VIMESPLEITEL) (peptide)
peptide: {Biotin-TTDS}-VIMESPLEITEL
notes: C-terminal residues of cadherin-23, including the PBM; source: synthetic peptide (Eurogentec); not shown: biotin, N-terminal, kept
B4: the Kd in test [7] is approximately 20 µM; in test [8], 64 µM; in test [9] it was 4.3 µM; in test [10] it was 141 µM; in test [11] it was more than 1000 µM; in test [12], more than 1000 µM. Also, the Kd in test [13] was more than 1000 µM; in test [14] it was 11.3 µM.
